# T1: TipAN (Streptomyces lividans, UniProt P0A4T9 1-109)
# T1 sequence: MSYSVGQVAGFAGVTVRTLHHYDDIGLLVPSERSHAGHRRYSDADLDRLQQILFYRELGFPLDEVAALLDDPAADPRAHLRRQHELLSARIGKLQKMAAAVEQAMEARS
# T2: TipAH7 (Streptomyces lividans, UniProt P0A4T9 1-140)
# T2 sequence: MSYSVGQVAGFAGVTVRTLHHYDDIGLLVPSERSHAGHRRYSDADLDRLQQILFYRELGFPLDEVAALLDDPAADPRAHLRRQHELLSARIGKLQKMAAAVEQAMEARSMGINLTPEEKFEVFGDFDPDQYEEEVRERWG
# T3: TipAL (Streptomyces lividans, UniProt P0A4T9 1-253)
# T3 sequence: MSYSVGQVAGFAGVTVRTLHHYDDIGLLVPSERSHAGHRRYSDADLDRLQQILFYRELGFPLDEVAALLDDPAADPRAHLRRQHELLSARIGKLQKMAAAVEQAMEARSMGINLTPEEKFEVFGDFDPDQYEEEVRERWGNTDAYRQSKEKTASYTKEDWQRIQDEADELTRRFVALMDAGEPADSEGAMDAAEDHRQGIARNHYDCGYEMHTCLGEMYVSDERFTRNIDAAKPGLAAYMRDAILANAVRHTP
# T4: TipAL F123A/F126A (Streptomyces lividans, UniProt P0A4T9 1-253, F123A;F126A)
# T4 sequence: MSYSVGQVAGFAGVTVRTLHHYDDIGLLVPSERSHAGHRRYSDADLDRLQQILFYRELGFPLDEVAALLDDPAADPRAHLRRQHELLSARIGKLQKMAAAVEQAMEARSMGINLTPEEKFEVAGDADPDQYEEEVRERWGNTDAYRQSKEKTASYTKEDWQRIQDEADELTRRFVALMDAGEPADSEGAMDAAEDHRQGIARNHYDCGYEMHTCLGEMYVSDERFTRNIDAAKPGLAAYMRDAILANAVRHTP
# T5: TipAL F123A (Streptomyces lividans, UniProt P0A4T9 1-253, F123A)
# T5 sequence: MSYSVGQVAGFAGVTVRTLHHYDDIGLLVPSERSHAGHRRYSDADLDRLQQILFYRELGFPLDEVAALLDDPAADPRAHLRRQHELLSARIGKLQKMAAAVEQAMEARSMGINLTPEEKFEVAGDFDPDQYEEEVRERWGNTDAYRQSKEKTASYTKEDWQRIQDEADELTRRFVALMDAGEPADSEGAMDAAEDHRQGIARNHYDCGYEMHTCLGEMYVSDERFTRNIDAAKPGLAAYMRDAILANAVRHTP
# T6: TipAL I112A/F123A (Streptomyces lividans, UniProt P0A4T9 1-253, I112A;F123A)
# T6 sequence: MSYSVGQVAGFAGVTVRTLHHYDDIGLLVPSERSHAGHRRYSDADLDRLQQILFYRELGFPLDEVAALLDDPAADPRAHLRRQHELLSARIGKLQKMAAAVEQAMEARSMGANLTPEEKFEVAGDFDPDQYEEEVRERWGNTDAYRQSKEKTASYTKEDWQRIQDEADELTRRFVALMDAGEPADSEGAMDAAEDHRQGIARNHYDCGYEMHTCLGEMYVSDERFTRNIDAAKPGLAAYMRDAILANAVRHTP
# Tests used:
# [1] = molecular target: SkgA (stationary-phase regulation of KatG protein), Caulobacter crescentus TipA-class transcriptional regulator, full length (Caulobacter crescentus); assay: not stated; SkgA in solution (Fig. S2A); method not given
# [2] = molecular target: I112A/F123A mutant of TipAL (Streptomyces lividans, UniProt P0A4T9, F123A/I112A); assay: Isothermal titration calorimetry, thiopeptide binding to I112A/F123A TipAL
# Procedure: (§1) The ITC binding studies of the nosiheptide (Sigma) with WT TipAL and its mutants were performed using an ITC200 (GE Healthcare) at 298 K using a previously described protocol ([38]), with 60 μl of nosiheptide solution in the injector cell and 260 μl of protein solution in the sample cell. The injection volumes were set to […] for all experiments, and two consecutive injections were separated by 2 min to reset the baseline. The control experiments, in which nosiheptide was titrated against the buffer, were also conducted, and the results were subtracted from the results of each standard experiment for adjustments. Three replicates were performed for each reaction. The final data were processed with a one-site fitting model using Microcal-Origin (OriginLab Corp, Northampton, MA, USA).
# [3] = molecular target: WT TipAL (Streptomyces lividans, UniProt P0A4T9); assay: Isothermal titration calorimetry, thiopeptide binding to WT TipAL
# Procedure: as §1
# [4] = molecular target: F123A mutant of TipAL (Streptomyces lividans, UniProt P0A4T9, F123A); assay: Isothermal titration calorimetry, thiopeptide binding to F123A TipAL
# Procedure: as §1
# [5] = molecular target: F123A/F126A mutant of TipAL (Streptomyces lividans, UniProt P0A4T9, F123A/F126A); assay: Isothermal titration calorimetry, thiopeptide binding to F123A/F126A TipAL
# Procedure: as §1
# [6] = molecular target: SkgACC (S16C/E133C), double-cysteine mutant of SkgA (Caulobacter crescentus); assay: cross-linking; disulfide bonds between introduced cysteines; reduced and nonreduced 15% SDS-PAGE, Coomassie Brilliant Blue staining
# [7] = molecular target: the molecule itself; assay: SEC; analytical SEC, Superdex 200 10/300, 40 μM protein, 20 mM Tris-HCl pH 7.5, 150 mM NaCl, 1 mM DTT
# [8] = molecular target: the molecule itself; assay: cross-linking; disulfide bonds between introduced cysteines; reduced and nonreduced 15% SDS-PAGE, Coomassie Brilliant Blue staining
# [9] = molecular target: T1, TipAN; assay: fluorescence polarization; no thiostrepton; 20 mM Tris-HCl pH 7.5, 200 mM NaCl, 5% (v/v) glycerol, 298 K; 10 nM labeled DNA; settings: protein: recombinant; tags: His6 (pET-28a); chain copies: 2; label: 5'-carboxyfluorescein; blunt
# [10] = molecular target: T2, TipAH7; assay: as above; settings: protein: recombinant; tags: His6 (pET-28a); chain copies: 2; label: 5'-carboxyfluorescein; blunt
# [11] = molecular target: T3, TipAL; assay: fluorescence polarization; thiostrepton 1:1; 20 mM Tris-HCl pH 7.5, 200 mM NaCl, 5% (v/v) glycerol, 298 K; 10 nM labeled DNA; settings: protein: recombinant; tags: His6 (pET-28a); chain copies: 2; label: 5'-carboxyfluorescein; blunt
# [12] = molecular target: T4, TipAL F123A/F126A; assay: as above; settings: protein: recombinant; tags: His6 (pET-28a); chain copies: 2; label: 5'-carboxyfluorescein; blunt
# [13] = molecular target: T5, TipAL F123A; assay: as above; settings: protein: recombinant; tags: His6 (pET-28a); chain copies: 2; label: 5'-carboxyfluorescein; blunt
# [14] = molecular target: T6, TipAL I112A/F123A; assay: as above; settings: protein: recombinant; tags: His6 (pET-28a); chain copies: 2; label: 5'-carboxyfluorescein; blunt
# [15] = tested on: mta promoter DNA; assay: Fluorescence polarization assay, mta promoter DNA binding; design: species or system Bacillus subtilis; settings: FPA, apo
# Procedure: Fluorescence polarization assays (FPAs) were performed to test the structure-based hypothesis that α6–α7 plays a key role in communication between the ligand-binding and DNA-binding regions. […] Parallel experiments were also performed for Mta and SkgA proteins, and consistent results were obtained.
# FPAs were performed in buffer consisting of 20 mM Tris-HCl, pH 7.5, 200 mM NaCl and 5% (v/v) glycerol at 298 K using a SpectraMax M5 microplate reader system (Molecular Devices, San Jose, CA, USA). The wavelengths of fluorescence excitation and emission were 486 and 525 nm, respectively. 26-bp dsDNA from the −10 and −35 regions of the tipA, mta, and skgA promoters with the sequences […], […], and […] were synthesized with a 5′-carboxyfluorescein label for the respective assays with TipAL, Mta, and SkgA proteins. For assays with thiostrepton supplementation, proteins were incubated with thiostrepton (Sigma) at a 1:1 ratio for 15 min prior to mixing with DNA in wells. Each well of a 384-well plate contained 10 nM of a fluorescently labeled DNA probe and different amounts of proteins with a final volume of 80 μl. DNA-free controls were included, and three replicates were performed for each reaction for each assay. The fluorescence polarization ΔP (in mP units) was calculated and fitted according to a one-site specific binding model using GraphPad Prism7 (GraphPad Software) with the function ΔP = ΔPmax[protein]/(Kd + [protein]).
# Sequence of SkgA (stationary-phase regulation of KatG protein), Caulobacter crescentus TipA-class transcriptional regulator, full length (natural protein) (B8H172 whole entry): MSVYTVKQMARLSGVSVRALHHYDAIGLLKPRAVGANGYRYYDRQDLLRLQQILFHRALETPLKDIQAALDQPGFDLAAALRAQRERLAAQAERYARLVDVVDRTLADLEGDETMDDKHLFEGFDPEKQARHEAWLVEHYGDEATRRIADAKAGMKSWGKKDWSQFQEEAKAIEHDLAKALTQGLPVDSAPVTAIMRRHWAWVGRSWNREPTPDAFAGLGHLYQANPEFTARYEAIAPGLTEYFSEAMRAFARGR
molecule,measurement,setting,value
"SkgA (stationary-phase regulation of KatG protein), Caulobacter crescentus TipA-class transcriptional regulator, full length (natural protein)",stoichiometry N,[1],2
"C=C(NC(=O)c1csc(-c2nc3c(cc2O)-c2nc(cs2)C(=O)NC(C(C)O)C(=O)N/C(=C\C)c2nc(cs2)C(=O)NC2CC(O)C(=O)OCc4cccc5[nH]c(c(C)c45)C(=O)SCC(NC(=O)c4csc2n4)c2nc-3cs2)n1)C(N)=O (stereo not shown) [thiopeptide, nosiheptide]",Kd,[2],7.51 ± 0.87 µM
same,thiopeptide-binding affinity compared with WT and F123A,"[2]; I112A/F123A vs WT and F123A TipAL, ITC",without a significant difference
same,Kd,[3],5.23 ± 0.84 µM
same,Kd,[4],7.12 ± 0.95 µM
same,decrease in thiopeptide affinity vs WT,"[4]; F123A vs WT TipAL, ITC",~1.4 fold
same,Kd,[5],13.2 ± 1.36 µM
same,decrease in thiopeptide affinity vs WT,"[5]; F123A/F126A vs WT TipAL, ITC",~2.5 fold
"SkgACC (S16C/E133C), double-cysteine mutant of SkgA (natural protein)",stoichiometry N,[6],2
"TipAL, full-length thiostrepton-induced protein A of Streptomyces lividans (natural protein, UniProt P0A4T9-1 1-253, looked up, also called WT TipAL; full-length TipAL; source: E. coli BL21 (DE3), purified (nickel-nitrilotriacetic acid, Superdex 200 SEC)) MSYSVGQVAGFAGVTVRTLHHYDDIGLLVPSERSHAGHRRYSDADLDRLQQILFYRELGFPLDEVAALLDDPAADPRAHLRRQHELLSARIGKLQKMAAAVEQAMEARSMGINLTPEEKFEVFGDFDPDQYEEEVRERWGNTDAYRQSKEKTASYTKEDWQRIQDEADELTRRFVALMDAGEPADSEGAMDAAEDHRQGIARNHYDCGYEMHTCLGEMYVSDERFTRNIDAAKPGLAAYMRDAILANAVRHTP",stoichiometry N,[7],2
"TipAN (TipAL residues 1-109), N terminus of TipAL (domain or fragment, Streptomyces lividans, UniProt P0A4T9-1 1-109, looked up, its limits may differ from this construct; source: E. coli BL21 (DE3), purified (nickel-nitrilotriacetic acid, Superdex 200 SEC)) MSYSVGQVAGFAGVTVRTLHHYDDIGLLVPSERSHAGHRRYSDADLDRLQQILFYRELGFPLDEVAALLDDPAADPRAHLRRQHELLSARIGKLQKMAAAVEQAMEARS",stoichiometry N,[7],2
"TipAH7 (TipAL residues 1-140), TipAN plus the α6-α7 region (domain or fragment, Streptomyces lividans, UniProt P0A4T9-1 1-140, looked up, source: E. coli BL21 (DE3), purified (nickel-nitrilotriacetic acid, Superdex 200 SEC)) MSYSVGQVAGFAGVTVRTLHHYDDIGLLVPSERSHAGHRRYSDADLDRLQQILFYRELGFPLDEVAALLDDPAADPRAHLRRQHELLSARIGKLQKMAAAVEQAMEARSMGINLTPEEKFEVFGDFDPDQYEEEVRERWG",stoichiometry N,[7],2
"MtaCC (S15C/E138C), double-cysteine mutant of Mta (natural protein, Bacillus subtilis, UniProt P71039 1-257, looked up, disulfide bonds between the introduced cysteines of two protomers (nonreduced sample), source: E. coli BL21 (DE3), purified (nickel-nitrilotriacetic acid, Superdex 200 SEC)) MKYQVKQVAEISGVCIRTLHHYDNIELLNPSALTDAGYRLYSDADLERLQQILFFKEIGFRLDEIKEMLDHPNFDRKAALQSQKEILMKKKQRMDEMIQTIDRTLLSVDGGETMNKRDLFAGLSMKDIEEHQQTYADCVRKLYGKEIAEETEKRTSAYSADDWRTIMAEFDSIYRRIAARMKHGPDDAEIQAAVGAFRDHICQYHYDCTLDIFRGLGEVYITDERFTDSINQYGEGLAAFLREAIIIYCDHQENPRP",stoichiometry N,[8],2
"TipALCC (T15C/E134C), double-cysteine mutant of TipAL (natural protein, Streptomyces lividans, UniProt P0A4T9-1 1-253, looked up, disulfide bonds between the introduced cysteines of two protomers (nonreduced sample), source: E. coli BL21 (DE3), purified (nickel-nitrilotriacetic acid, Superdex 200 SEC)) MSYSVGQVAGFAGVCVRTLHHYDDIGLLVPSERSHAGHRRYSDADLDRLQQILFYRELGFPLDEVAALLDDPAADPRAHLRRQHELLSARIGKLQKMAAAVEQAMEARSMGINLTPEEKFEVFGDFDPDQYEECVRERWGNTDAYRQSKEKTASYTKEDWQRIQDEADELTRRFVALMDAGEPADSEGAMDAAEDHRQGIARNHYDCGYEMHTCLGEMYVSDERFTRNIDAAKPGLAAYMRDAILANAVRHTP",stoichiometry N,[8],2
ptipA (dsDNA) DNA 1: TTGCACCTCACGTCACGTGAGGAGGC DNA 2: GCCTCCTCACGTGACGTGAGGTGCAA,Kd,[9],44 ± 5.1 nM
same,Kd,[10],318 ± 58.5 nM
same,Kd,[11],30.2 ± 3.7 nM
same,Kd,[12],317 ± 51.4 nM
same,Kd,[13],228 ± 25.9 nM
same,Kd,[14],685 ± 97.9 nM
"MtaCC (protein, disulfide bonds between the introduced cysteines of two protomers (nonreduced sample); left off: His6, end not stated, state not stated) MKYQVKQVAEISGVCIRTLHHYDNIELLNPSALTDAGYRLYSDADLERLQQILFFKEIGFRLDEIKEMLDHPNFDRKAALQSQKEILMKKKQRMDEMIQTIDRTLLSVDGGETMNKRDLFAGLSMKDIEEHQQTYADCVRKLYGKEIAEETEKRTSAYSADDWRTIMAEFDSIYRRIAARMKHGPDDAEIQAAVGAFRDHICQYHYDCTLDIFRGLGEVYITDERFTDSINQYGEGLAAFLREAIIIYCDHQENPRP",specific binding with mta promoter DNA,[15]; double-cysteine mutant,did not show any specific binding
same,"Kd, affinity with mta promoter DNA","[15]; 10 nM 5'-carboxyfluorescein-labeled 26-bp dsDNA, 20 mM Tris-HCl pH 7.5, 200 mM NaCl, 5% glycerol, 298 K, ex 486/em 525 nm, one-site binding fit, three replicates, n.b. = printed in picture, not defined",n.b.

# Reference: PMC7762955, “Antibiotic binding releases autoinhibition of the TipA multidrug-resistance transcriptional regulator” (The Journal of Biological Chemistry, 2020)
